# Bridges are numbered along the chain shown (N, C = ends). [ ]: non-standard residue; d: D form. NMeW = CN[C@@H](Cc1c[nH]c2ccccc12)C(=O)O; 1Nal = N[C@@H](Cc1cccc2ccccc12)C(=O)O; NMeH = CN[C@@H](Cc1c[nH]cn1)C(=O)O; Aib = CC(C)(N)C(=O)O; AEA = NCCOCC(=O)O; βAla = NCCC(=O)O; Sar = CNCC(=O)O
# T1: IL23R_huFC (human, UniProt Q5VWK5 24-353)
# T1 sequence (looked up): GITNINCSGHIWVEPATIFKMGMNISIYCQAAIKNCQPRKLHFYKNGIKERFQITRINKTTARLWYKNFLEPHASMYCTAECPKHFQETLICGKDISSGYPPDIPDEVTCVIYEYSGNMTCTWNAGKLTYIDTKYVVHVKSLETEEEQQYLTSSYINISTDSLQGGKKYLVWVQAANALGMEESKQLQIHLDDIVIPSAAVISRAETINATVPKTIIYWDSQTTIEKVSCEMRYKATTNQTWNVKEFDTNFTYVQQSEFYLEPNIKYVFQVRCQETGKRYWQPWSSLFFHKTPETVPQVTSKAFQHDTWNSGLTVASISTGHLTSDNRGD
# B1: Ac-CQTWQCYWR-[Sarc]-NG-[AEA]-[(D)-Lys]-NH2 (peptide)
# peptide: Ac-CQTWQCYWR[Sar]NG[AEA][dK]-NH2
# modifications: disulfide 1-6
# SMILES: CC(=O)N[C@H]1CSSC[C@@H](C(=O)N[C@@H](Cc2ccc(O)cc2)C(=O)N[C@@H](Cc2c[nH]c3ccccc23)C(=O)N[C@@H](CCCNC(=N)N)C(=O)N(C)CC(=O)N[C@@H](CC(N)=O)C(=O)NCC(=O)NCCOCC(=O)N[C@H](CCCCN)C(N)=O)NC(=O)[C@H](CCC(N)=O)NC(=O)[C@H](Cc2c[nH]c3ccccc23)NC(=O)[C@H]([C@@H](C)O)NC(=O)[C@H](CCC(N)=O)NC1=O
# B2: Hy-CSDWECYWHIFG-NH2 (peptide)
# peptide: H-CSDWECYWHIFG-NH2
# modifications: disulfide 1-6 (inferred)
# B3: Hy-CETWECYWHSFS-NH2 (peptide)
# peptide: H-CETWECYWHSFS-NH2
# modifications: disulfide 1-6 (inferred)
# B4: Hy-CQSWECYWHYYG-NH2 (peptide)
# peptide: H-CQSWECYWHYYG-NH2
# modifications: disulfide 1-6 (inferred)
# B5: Hy-CSDWRCYWHVFG-NH2 (peptide)
# peptide: H-CSDWRCYWHVFG-NH2
# modifications: disulfide 1-6 (inferred)
# B6: Hy-CHTWVCYWHEFS-NH2 (peptide)
# peptide: H-CHTWVCYWHEFS-NH2
# modifications: disulfide 1-6 (inferred)
# B7: Hy-CTDWVCYWHEYS-NH2 (peptide)
# peptide: H-CTDWVCYWHEYS-NH2
# modifications: disulfide 1-6 (inferred)
# B8: Hy-CQTWVCYWHTYG-NH2 (peptide)
# peptide: H-CQTWVCYWHTYG-NH2
# modifications: disulfide 1-6 (inferred)
# B9: Hy-CGNWECYWHVYG-NH2 (peptide)
# peptide: H-CGNWECYWHVYG-NH2
# modifications: disulfide 1-6 (inferred)
# B10: Hy-CKDWKCYWHIYG-NH2 (peptide)
# peptide: H-CKDWKCYWHIYG-NH2
# modifications: disulfide 1-6 (inferred)
# B11: Hy-CRTWVCYWHVFG-NH2 (peptide)
# peptide: H-CRTWVCYWHVFG-NH2
# modifications: disulfide 1-6 (inferred)
# B12: Hy-CAD-[1-Nal]-VCYWHTFG-NH2 (peptide)
# peptide: CADXVCYWHTFG
# modifications: [1-Nal]; -NH2; disulfide
# B13: Hy-CAD-[2-Nal]-VCYWHTFG-NH2 (peptide)
# peptide: CADXVCYWHTFG
# modifications: [2-Nal]; -NH2; disulfide
# B14: Hy-CAD-[1-BIP]-VCYWHTFG-NH2 (peptide)
# peptide: CADXVCYWHTFG
# modifications: not fully specified; [1-BIP]; -NH2; disulfide
# B15: Hy-CAD-[Tic]-VCYWHTFG-NH2 (peptide)
# peptide: CADXVCYWHTFG
# modifications: [Tic]; -NH2; disulfide
# B16: Hy-CADWVCY[Tic]-HTFG-NH2 (peptide)
# peptide: CADWVCYXHTFG
# modifications: [Tic]; -NH2; disulfide
# B17: Hy-ACDWVCYWHTFG-NH2 (peptide)
# peptide: H-ACDWVCYWHTFG-NH2
# modifications: disulfide 2-6 (inferred)
# B18: Hy-ACDWCCYWCTFG-NH2 (peptide)
# peptide: H-ACDWCCYWCTFG-NH2
# modifications: disulfide (positions not given here); also: disulfide pairing not given here
# B19: Hy-AADWCAYWCTFG-NH2 (peptide)
# peptide: H-AADWCAYWCTFG-NH2
# modifications: disulfide 5-9 (inferred)
# B20: Hy-CADWCCYWCTFG-NH2 (peptide)
# peptide: H-CADWCCYWCTFG-NH2
# modifications: disulfide (positions not given here); also: disulfide pairing not given here
# B21: Hy-CADWCCYWCTFG-NH2 (peptide)
# peptide: H-CADWCCYWCTFG-NH2
# modifications: disulfide (positions not given here); also: disulfide pairing not given here
# B22: Hy-CADWCCYWCTFG-NH2 (peptide)
# peptide: H-CADWCCYWCTFG-NH2
# modifications: disulfide (positions not given here); also: disulfide pairing not given here
# B23: Hy-CADWVCYWHTF-NH2 (peptide)
# peptide: H-CADWVCYWHTF-NH2
# modifications: disulfide 1-6 (inferred)
# B24: Hy-CADWVCYWHT-NH2 (peptide)
# peptide: H-CADWVCYWHT-NH2
# modifications: disulfide 1-6 (inferred)
# B25: Ac-[(D)Lys]-SCADWVCYWHTFG-OH (peptide)
# peptide: Ac-[dK]SCADWVCYWHTFG-OH
# modifications: disulfide 3-8 (inferred)
# B26: Ac-[(D)Lys]-[β-Ala]-CADWVCYWHTFG-OH (peptide)
# peptide: KACADWVCYWHTFG
# modifications: Ac-; [(D)Lys]; [β-Ala]; disulfide
# B27: Hy-[β-Ala]-SCADWVCYWHTFG-OH (peptide)
# peptide: H-[βAla]SCADWVCYWHTFG-OH
# modifications: disulfide 3-8 (inferred)
# B28: Ac-[(D)Lys]-CADWVCYWHTFG-OH (peptide)
# peptide: KCADWVCYWHTFG
# modifications: Ac-; [(D)Lys]; disulfide
# B29: Hy-CADWVCY-[1-Nal]-HTF-OH (peptide)
# peptide: H-CADWVCY[1Nal]HTF-OH
# modifications: disulfide 1-6 (inferred)
# B30: Hy-CADWVCY-[1-Nal]-[N-Me-His]-TF-OH (peptide)
# peptide: H-CADWVCY[1Nal][NMeH]TF-OH
# modifications: disulfide 1-6
# SMILES: CC(C)[C@@H]1NC(=O)[C@H](Cc2c[nH]c3ccccc23)NC(=O)[C@H](CC(=O)O)NC(=O)[C@H](C)NC(=O)[C@@H](N)CSSC[C@@H](C(=O)N[C@@H](Cc2ccc(O)cc2)C(=O)N[C@@H](Cc2cccc3ccccc23)C(=O)N(C)[C@@H](Cc2c[nH]cn2)C(=O)N[C@H](C(=O)N[C@@H](Cc2ccccc2)C(=O)O)[C@@H](C)O)NC1=O
# B31: Hy-C-[Sarc]-DWVCY-[1-Nal]-HTF-OH (peptide)
# peptide: CXDWVCYXHTF
# modifications: [Sarc]; [1-Nal]; disulfide
# B32: Hy-CAD-[N-Me-Trp]-VCY-[1-Nal]-HTF-OH (peptide)
# peptide: H-CAD[NMeW]VCY[1Nal]HTF-OH
# modifications: disulfide 1-6 (inferred)
# B33: Hy-CADW-[Sarc]-CY-[1-Nal]-HTF-OH (peptide)
# peptide: CADWXCYXHTF
# modifications: [Sarc]; [1-Nal]; disulfide
# B34: Hy-CADWVCY-[1-Nal]-HT-[(D)Phe]-OH (peptide)
# peptide: H-CADWVCY[1Nal]HT[dF]-OH
# modifications: disulfide 1-6 (inferred)
# B35: Hy-CADWVCY-[1-Nal]-HTF-[Sarc]-OH (peptide)
# peptide: CADWVCYXHTFX
# modifications: [1-Nal]; [Sarc]; disulfide
# B36: Ac-CADWVCY-[1-Nal]-[N-Me-His]-[(D)Ala]-F-[Aib]-NH2 (peptide)
# peptide: Ac-CADWVCY[1Nal][NMeH][dA]F[Aib]-NH2
# modifications: disulfide 1-6
# SMILES: CC(=O)N[C@H]1CSSC[C@@H](C(=O)N[C@@H](Cc2ccc(O)cc2)C(=O)N[C@@H](Cc2cccc3ccccc23)C(=O)N(C)[C@@H](Cc2c[nH]cn2)C(=O)N[C@H](C)C(=O)N[C@@H](Cc2ccccc2)C(=O)NC(C)(C)C(N)=O)NC(=O)[C@H](C(C)C)NC(=O)[C@H](Cc2c[nH]c3ccccc23)NC(=O)[C@H](CC(=O)O)NC(=O)[C@H](C)NC1=O
# B37: Ac-CADWVCYWHRCGWWGC-NH2 (peptide)
# peptide: Ac-CADWVCYWHRCGWWGC-NH2
# modifications: disulfide (positions not given here)
# B38: Ac-CADWVCY-[1-Nal]-H-[Aib]-FG-NH2 (peptide)
# peptide: Ac-CADWVCY[1Nal]H[Aib]FG-NH2
# modifications: disulfide 1-6
# SMILES: CC(=O)N[C@H]1CSSC[C@@H](C(=O)N[C@@H](Cc2ccc(O)cc2)C(=O)N[C@@H](Cc2cccc3ccccc23)C(=O)N[C@@H](Cc2c[nH]cn2)C(=O)NC(C)(C)C(=O)N[C@@H](Cc2ccccc2)C(=O)NCC(N)=O)NC(=O)[C@H](C(C)C)NC(=O)[C@H](Cc2c[nH]c3ccccc23)NC(=O)[C@H](CC(=O)O)NC(=O)[C@H](C)NC1=O
# B39: Ac-CADWVCY-[1-Nal]-H-[Aib]-[(D)Phe]-G-NH2 (peptide)
# peptide: Ac-CADWVCY[1Nal]H[Aib][dF]G-NH2
# modifications: disulfide 1-6
# SMILES: CC(=O)N[C@H]1CSSC[C@@H](C(=O)N[C@@H](Cc2ccc(O)cc2)C(=O)N[C@@H](Cc2cccc3ccccc23)C(=O)N[C@@H](Cc2c[nH]cn2)C(=O)NC(C)(C)C(=O)N[C@H](Cc2ccccc2)C(=O)NCC(N)=O)NC(=O)[C@H](C(C)C)NC(=O)[C@H](Cc2c[nH]c3ccccc23)NC(=O)[C@H](CC(=O)O)NC(=O)[C@H](C)NC1=O
# B40: Ac-CADWVCY-[1-Nal]-HTF-[Aib]-NH2 (peptide)
# peptide: Ac-CADWVCY[1Nal]HTF[Aib]-NH2
# modifications: disulfide 1-6
# SMILES: CC(=O)N[C@H]1CSSC[C@@H](C(=O)N[C@@H](Cc2ccc(O)cc2)C(=O)N[C@@H](Cc2cccc3ccccc23)C(=O)N[C@@H](Cc2c[nH]cn2)C(=O)N[C@H](C(=O)N[C@@H](Cc2ccccc2)C(=O)NC(C)(C)C(N)=O)[C@@H](C)O)NC(=O)[C@H](C(C)C)NC(=O)[C@H](Cc2c[nH]c3ccccc23)NC(=O)[C@H](CC(=O)O)NC(=O)[C@H](C)NC1=O
# Target: T1, IL23R_huFC
# Assay: IL23-IL23R competitive ELISA
row,Binder,IC50 [nM]
1,B1,> 1000
2,B2,> 1000
3,B3,> 1000
4,B4,> 1000
5,B5,> 1000
6,B6,> 1000
7,B7,> 1000
8,B8,> 1000
9,B9,> 1000
10,B10,> 1000
11,B11,> 1000
12,B12,> 1000
13,B13,> 1000
14,B14,> 1000
15,B15,> 1000
16,B16,> 1000
17,B17,> 1000
18,B18,> 1000
19,B19,> 1000
20,B20,> 1000

row,Binder,IC50 [nM]
1,B21,> 1000
2,B22,> 1000
3,B23,> 1000
4,B24,> 1000
5,B25,> 1000
6,B26,> 1000
7,B27,> 1000
8,B28,> 1000
9,B29,> 1000
10,B30,> 1000
11,B31,> 1000
12,B32,> 1000
13,B33,> 1000
14,B34,> 1000
15,B35,> 1000
16,B36,> 1000
17,B37,> 1000
18,B38,> 1000
19,B39,> 1000
20,B40,> 1000

# Reference: US20190300590A1 (PROTAGONIST THERAPEUTICS, published 2019)
